The text below walks through data of US20100256217A1 (University of Pennsylvania, published 2010).

The test deals with T1, human CK2β subunit, cloned from HeLa cell cDNA (pcCK2β) (human, UniProt P67870 1-215).
T1 construct: 35S-labeled in vitro translated protein in the in vitro assay; Expressed in transfected 293T cells in the in vivo assay; also called CKβ; CK2 beta
In words: in vitro binding assay, 35S-labeled in vitro translated proteins, co-immunoprecipitation with anti-His or anti-CK2β, autoradiography.

T1 sequence (P67870 whole entry): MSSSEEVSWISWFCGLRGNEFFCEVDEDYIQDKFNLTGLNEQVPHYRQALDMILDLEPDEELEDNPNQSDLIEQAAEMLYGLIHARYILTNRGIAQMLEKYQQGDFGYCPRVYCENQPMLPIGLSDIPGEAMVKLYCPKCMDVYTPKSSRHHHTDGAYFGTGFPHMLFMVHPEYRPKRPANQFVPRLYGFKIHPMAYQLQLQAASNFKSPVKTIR

B1: West Nile virus capsid protein with a C-terminal polyhistidine tag, encoded by pcWNV C-His (other)
chain: MSKKPGGPGKSRAVNMLKRGMPRVLSLIGLKRAMLSLIDGKGPIRFVLALLAFFRFTAIAPTRAVLDRWRGVNKQTAMKHLLSFKKELGTLTSAINRRSSKQKKRGGKTGIAVMIGLIASVGA
notes: The capsid is its N-terminal part; also called WNV Cp; protein C; not shown: C-terminal polyhistidine tag from the pcDNA3.1 V5/HisA vector
Turning to B1, the binding result is “no binding”.
